The text below walks through data of patent US20240252474A1, “METHODS AND COMPOSITIONS COMPRISING A CARDIO-TOLERATED HDAC INHIBITOR” (HUYABIO International, LLC, priority 2023, published 2024).

The nature of the series: Phase 1b safety and tolerability of HBI-8000 combined with nivolumab (DLTs, TEAEs). Type of series: in vivo. As to the method:
The present example, was a Phase Ib/2 open-label dose finding study for HBI-8000 (also referred to in the art as “chidamide” or “tucidinostat” and also referred to herein as a compound of formula I) in combination with nivolumab in patients with advanced solid tumors, including melanoma, RCC (renal cell carcinoma), and NSCLC (non-small cell lung cancer). This study was conducted in accordance with Good Clinical Practice guidelines and the Declaration of Helsinki and with assurance/approval from the US Department of Health and Human Services; the protocol was approved by the institutional review boards or ethics committees of all participating sites. All patients provided written informed consent to participate before enrollment. […]
HBI-8000 at three dose levels (20 mg, 30 mg, and 40 mg) given orally twice a week (BIW) were evaluated. Doses were taken approximate 30 minutes after a meal. The starting dose (20 mg) was selected based on pharmacokinetic profiles established for monotherapy in Japanese patients with T-cell lymphoma.
The decision to escalate the dose was based on the conventional 3+3 design and observed incidences of dose-limiting toxicities (DLTs). Each treatment cycle was defined as 28 days. […] Subjects experiencing DLT within the first two weeks after having received 100% of assigned dose of HBI-8000 are also evaluable for DLT. Unacceptable toxicities were defined as grade 3 or higher non-hematologic and hematologic toxicities with clinical complications. Unacceptable toxicities observed over the first 28 days following HBI-8000 administration were considered as DLTs. […] HBI-8000 administration continued until disease progression or unacceptable toxicity was observed. The efficacy of the combination was further evaluated in an expanded cohort of selected patient populations at RP2D based on an objective response rate according to Response Evaluation Criteria in Solid Tumors (RECIST) version 1.1 criteria, progression-free survival, and duration of responses.
Safety evaluations included physical examinations, vital signs, ECGs, ECOG performance status, and laboratory tests.
Statistical analyses of safety, tolerability, and anti-tumor activity were primarily descriptive in nature. Toxicities were tabulated by type and grade. The safety population included all patients who received ≥1 dose of HBI-8000 and nivolumab. Continuous variables were summarized using descriptive statistics and categorical variables were summarized with number and percentage at each category. Pharmacokinetic parameters were derived using noncompartmental methods with Phoenix® WinNonlin® Version 6.4 (Certara, L. P., Princeton, NJ, USA).

Where [1] appears, read: 20 mg HBI-8000 BIW + nivolumab, N = 3.
Where [2] appears, read: 30 mg HBI-8000 BIW + nivolumab, N = 7.
The mark [3] stands for this setting: 40 mg HBI-8000 BIW + nivolumab, N = 7.

For the substance “Nivolumab: fully human monoclonal antibody directed against PD-1 (marketed as OPDIVO) [reference compound]”, under setting [1], the “Diarrhoea, Related Nivo, Any G” value is 1 (33) n (%); the “SAE related to Nivolumab alone, number of subjects” value (from here on “SAE related to Nivolumab alone”) came to 1 n; the “TEAE related to Nivolumab alone, number of subjects” value (from here on “TEAE related to Nivolumab alone”) is reported as 2 n; the “TEAE resulting in discontinuation of Nivo alone, number of subjects” value (shortened to “TEAE resulting in discontinuation”) amounted to 1 n. Also, under setting [1], the “Weight decreased, Related Nivo, Any G” value is on record as 1 (33) n (%). Moreover, under setting [2], the “Back pain, Related Nivo, Any G” value is 2 (29) n (%); the “Dyspnoea, Related Nivo, Any G” value is given as 1 (14) n (%); the “Fall, Related Nivo, Any G” value is on record as 1 (14) n (%); the “Hypoxia, Related Nivo, Any G” value is listed as 1 (14) n (%). In addition, under setting [2], the “Lipase increased, Related Nivo, Any G” value is 1 (14) n (%); the “SAE related to Nivolumab alone” value worked out at 2 n; the “TEAE related to Nivolumab alone” value is 6 n; the “TEAE resulting in discontinuation” value worked out at 4 n. Moreover, under setting [3], the “Diarrhoea, Related Nivo, Any G” value is listed as 1 (14) n (%); the “SAE related to Nivolumab alone” value worked out at 1 n; the “TEAE related to Nivolumab alone” value is reported as 2 n; the “TEAE resulting in discontinuation” value stood at 2 n. For the setting “Total, all dose levels, N = 17”, the “SAE related to Nivolumab alone” value stood at 4 n; the “TEAE related to Nivolumab alone” value is listed as 10 n; the “TEAE resulting in discontinuation” value is on record as 7 n.
